Measured values published in the supplement of paper PMC12636428.

System: Saccharomyces cerevisiae
Test: transcriptional activation domain activity (GFP:mCherry ratio, weighted mean of sorted bins, harmonized to initial dataset scale) (arbitrary fluorescence ratio units); higher = stronger transcriptional activation
Conditions: beta-estradiol 1 µM; induction time 4 h
Summary of the method: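 Each value is an activation activity: the read-weighted mean of bin median fluorescence, averaged across barcodes, then mapped linearly to the initial dataset scale. The tiles, fused to an estradiol-inducible synthetic transcription factor, sat at the yeast URA3 locus in GFP-reporter diploids. Cells spent 4 hours at 30 °C in SC with 1 uM beta-estradiol before sorting into 8 GFP:mCherry bins, and tiles below 50 reads were removed.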

Sequence | transcriptional activation domain activity
SEPEEEDSSSKKRKRKADDEGKKKAKKGKKAAGSDDEDEDANSVHISVTQAVS | 36600
SEPELYVPQFKLDPVNGFWFPHFVKYIILILMLGLYVLIIFWTFMICKVVYRL | 33300
SEPTAGNEGKEETSAPKKEESKPAESEKKAEEPKQEQPKKEEKKAEGKPASGS | 31400
SERLKNTGASGERAREGISINAGLASLGKVISQLSSRQPGAHVSYRDSKLTRL | 48800
SERRSHNQRDPERRDRNSNQSKRRRVDDSDSESDRRNRRRRVEHSSRKSHRSR | 43800
SERSERRADERSSRNGPSEAERGSERERGGREKRGGDRESSRRERERGGEARE | 17200
SESDTDSEEEEIEEDEGAAETRPGIRLQREEKAVETGEITNRLAIVNIDWDHL | 32000
SEVKYFWSYYNHVCFLVIPIDDNGLSIFFSCFTGESVEIILSIICVAMTQVLT | 35200
SFALCNRIVVGCAILRTGKILKSWHVARVSHFSTFVFNGVIHGSIPNMILTRK | 55100
SFCFILPFTALTLFIFFLSRISCWSAVWWLDDFWLLHICLDISFTFFLFYSFF | 62800
SFCVRHKFMWPLFRTRFIPCPVVSLIVLPTLFIVAYLPQVAFLAIFQGNLAWF | 58000
SFFFFFSYFYLDSLFLVLLPFTLCFYLFLVLWVCWLVGWFVGWLARFALSLSL | 55400
SFGDLVSVGPRQYYRPTHSLTIISICEEDNNLPASLVKRFNMLMALLVILTNT | 41300
SFHAFFFLYLPCCLFFYFCIVLVLVLVGYWCLVFFFIVFGSFPPPLLSKYLHL | 46200
SFIHSLLYAFLSFFPHLFISYFLSSFYYLSTHLFLSFFPFLVILFTSCYQNLS | 57700
SFILLFFYSFILLFFYSFILLFFWFFFCLWILIFSLFYSTIIITIKKRKAHTY | 59300
SFKPAPAPAAEEAPKTEETPAPAETEAAAEEAKPAEEPKKEEVKEEPKRRSAS | 35500
SFLEGAQHVVLGPGNFQWRGTKCKSFDAFIFNFIRVPRLEYWKLIRRSNCYRY | 52500
SFLIFLLCEYARHVLVTSITVPHYLEYADVWRGNGQMDFRLLIRMFSTDTRRK | 45000
SFLIGGGSAFWLITYGLFYWASRLSLDSLASVVLYLGYLFLLALFDFLITGTI | 36700
SFLNDAMSEIHTFGDFNGELDSTFLEFSGTEIKEPNNFITENTNAIETAAASM | 113000

Sequence | transcriptional activation domain activity
SFLSLFWLLCLGRFPIITKLFLGLYAVFYYVSRYKIGICFVVSIRWIWKSGNR | 45600
SFLSPFCRWVGGSFFVIIWSLFFLSLLFSPPCQPGFISWSFWTAGFLVFFFLF | 46500
SFLYWGSAGLFGIYVMSFQDSWWYQMEHLWVKYPHWMMRSELKVYYLLQFSYW | 21600
SFMKVLFLLTRYIPFLSTPLDLYYLLAPNMTFRTCLVTFMISRWLLCAGIVCA | 56200
SFMWVLVWLLVHIFKKFATITVDSATINRLARAFSSFDTGTVLTKEVILRLWR | 52100
SFNDTSFLNMEDPIRNEFSFDNGDRAVTDLPRSAHFLSDTGLEGINFSGLNDS | 55200
SFNLLLYGCVLADIGINLSFSCAVSYSHNRKASDVPHILELLFICMLQCCYIG | 60000
SFPIEGLYCLIKSLLKLKNLSLHGKIWWGDLKMLLPLLSKLDFWGIGELLLFD | 67000
SFPIRHIEDKLRNKGHVKTGILSANDGVPPTPNLLDYDWNNLNITGYEWISSE | 93900
SFRYHYGELRLSRLNKIHCITRFTWRDFVRGYMTTSTWYQDFFARNFAWLLAV | 55900
SFSAYFIACCVVIHVTQLVGSPLYLFNKPLYYAYMARTKQSFGVLVTTITQWW | 68900
SFSILYSRFAGPSIYMGMRNLLILLYVSMAIWIPHLIYFWLSVLSLCIAPFLF | 37800
SFSLLALSFFFLHVLFSLIIAPCVWFWFFSWLWFWLDLSSPRTYCIHIWLIHP | 39300
SFSLSVLSFFFFSIWLPLPPLSLSLSLFSPHLFPPLPFTLSLWVQWLYTFSYY | 79300
SFSSIIILLALCLVLLAVFFYFPFFFCLFCPYVLCCHPIFPPTLSQVSILAYY | 44700
SFSSYSSLPSFPSFPYFPSFPFLPFLPFSCVLFLLFLPFLHFLLLPSFPFFYL | 70900
SFSVILFYFIFLISPGQKAAFVFPWSFFFFLFFFFFFFTFFYFRLFSANFVCV | 45000
SFSVLNLNLGKIENDGNESNEDYLGNEKFYLNEILPDEESKLRWKRVFENSEN | 52600
SFTLYTIGICGLCDQFGLFCWVHMSLLIIVLSSHFIVNNILEGLIWFWVPASL | 31400
SFTNFLMALFGVLLGAIFLSIYTYYTFWRGCRSTILPCISSTWYKAFTILFYL | 47600
SFTRRLILWNVCALGIIIVLASRRLLRCILLRKKKFDDTMEFSMLSLIFDLCV | 71800

Sequence | transcriptional activation domain activity
SFTSKLNNPQFLGSLDLEILEELEKLISAQEFSRNFTEDVDESLQSEIDLMNY | 146000
SFVAYFSALWRGKQHRMTGYPIYDFFMGAELNPRMFGILDFKMFFEVRMPWYI | 67400
SFVAYFSALWRGKQHRMTGYPVYDFFMGAELNPRMFGILDFKMFFEVRMPWYI | 51000
SFVRDVGFFIVSASFSLVFLWDGKLYFWECVTMVGFYVFYVIFVMAWHWWLGR | 43100
SFWNTAFHPVYFNTTDLVLSFPFLFLPSFSSFFSFLFCIVIFTIVQRLYVFIS | 97000
SGADEFDVGASIEPTFATPRLTRTSETGTSESTSRRPSERSRSRARVLGLPVG | 38500
SGDADEDGNGHGTHCSGTIAGKKYGVAKKAHVYAVKVLRSNGSGSMSDVVKGV | 9640
SGDADEDGNGHGTHCSGTVAGKKYGVAKKAHVYAVKVLRSNGSGTMSDVVKGV | 42000
SGDADEDGNGHGTHCSGTVAGKKYGVAKKASVYAVKVLRSNGSGSMSDVVKGV | 45000
SGDAVMKDAVEEAGAAAAEAKPEPEPKPEPKPKRKAPAKKAKIVAAVSAAIAN | 26600
SGDPDEDGNGHGTHCSGTVAGKKYGVAKKANVYAVKVLRSNGSGSMSDVVKGV | 19600
SGEATATPEKSKTPRKRKTKAEGDSADNGDADGSPKKKAGGRKKKADVVKEEM | 23600
SGFPSVGFNFFLFFSMMQPAMFLVSLFFQSLFFLCLNTCVCFFGFNFFFLVHW | 34800
SGFRDNRKDNRGRGRDRGNRRDNRGNDRNREREDKEKAESKDVKSEDAPVKTE | 28100
SGGAPRGRGRGRREEKGRGRGRERGGRGRGGDRGRGRGRGRGVGGGSMGGGGG | 15900
SGGEGTRRRASGRGRGRGRGRNGRGARAARGDGEKKEGETTEAAAPTSGETPA | 34800
SGGGRRRDGGGRRAGGRRDGAGGGRGRGDRGGGGGGGGERGERGGRPKKTQEE | 50900
SGGKTMVSGSFAGESGRLQGSGPFGRGGGRESREQAYDNGRAKIARLAHGLRL | 22400
SGGKTVLQGAFAGESGRISSGGPFGHGRGKEGQEQAIDNGRQRIARLAHGLRL | 23600
SGICRLTFSFSTLFFNPDPSFSFFLSFFFLFFFSFLLLSFLLNLFPFLDFFFF | 24000
SGIYSGGLSLWTAFFLGYFKAFLWGSFWGWLAGYFVLLFVICVAWNPFFFLYL | 57600

Sequence | transcriptional activation domain activity
SGKLVFGPVSVFNGNVSLRIKKPLKGMTLTVTFNGVAEVDKYLFTFLNISHEV | 57800
SGKQGGRKSGSPHGRRPAIQGARRKGKQSSRKPTGKQTKQSPGKSGARKAFGK | 42400
SGLAFRNFWIRRISFAGHLRNSNSALTPSRYFRLMSMAVVQMFWGLVVTSLYT | 46800
SGLPIQYLNGSVTYQDGWVWLPGDSTDINATVQDLEDMWDSMVLNFWPLMTLF | 66100
SGLVIIFFMITRYFTATAEHLDHLSRCKVHNVPPYSYVFWICILGLELLLCSL | 48600
SGNPPNVVMPPIVCPYSPIIIISYVVTYFFLHHFGGLIGWLQFLSLLLQSLMV | 51000
SGNTGENEEDIAFASGLNGGTFDSMLEALPDDLYFTDFVSPFTAAATTSVTTK | 85100
SGPRASSGAKAQSLSQRGAKRKAASTARTEGASSSKSSRARGGKARASRVAKT | 32900
SGPSRERYFLFVFLGSFFWYFFPGYLFQALSWFSWVTWIWPHDTAIAQLFGYF | 52100
SGPSSNDELIEKGRMLVDELSEAGGGIKDGARNNTSSLYLHLVRVSIDKFSHA | 18900
SGQSVVWEAQKLVHKGFLIDAHVVVVFYVMGCFFIYVLARLRCSNPKLIVMQI | 62800
SGRTATSAKSHNIISGYREEVEQANLNLSLIDSQVVLLRAWKLLAMELCPFAF | 55900
SGSAAGPSSNAAEKETKEKSGQRRRGRRGGGGGGGGGGGDKNAATGTSQGASG | 35200
SGSGAEGASGTEHRRRASTRGRGRGRGRGGRAGRGGRAKTNGEGAELAGEEAG | < 6570
SGSGAEGASGTEHRRRTSTRGRGRGRGRGGRTGRGGRTANDAEGAEGAEADAS | 27900
SGSNINNNDNVKLPSNFKNYYDPPMSSLDISMDVPDIFGSLDFFDYDLLFQND | 179000
SGSSKPRRAEDGRKSSRRDHSREREGSNGGHHRSRSGRDGSASPKRSSSSRRR | 16800
SGTEDEDAAEDKSAAEDESGTEDESGTKDESGTEDEKLVRDIEEVVIVVEVVM | 32900
SGTSLFLFYFYFIFILILISIITFFFLFLIFFFIILFLLLLFFSYPSGIRPGW | 26900
SGWQRHIILHESLLNRYEHVIIVFVKSHLPSAGLLLKQFCVSGRILARMWRNG | 47800
